The values below come from patent publication US20230192824A1 (UNITED STATES OF AMERICA AS REPRESENTED BY THE SECRETARY OF …, published 2023).

Assay [1] deals with T1, dsc19CotD6xhis (C91f), donor strand complemented recombinant CS2 fimbrial tip adhesin CotD (Escherichia coli (ETEC) strain C91f).
T1 construct: also called dscCotD; CS2 adhesin
T1 chain: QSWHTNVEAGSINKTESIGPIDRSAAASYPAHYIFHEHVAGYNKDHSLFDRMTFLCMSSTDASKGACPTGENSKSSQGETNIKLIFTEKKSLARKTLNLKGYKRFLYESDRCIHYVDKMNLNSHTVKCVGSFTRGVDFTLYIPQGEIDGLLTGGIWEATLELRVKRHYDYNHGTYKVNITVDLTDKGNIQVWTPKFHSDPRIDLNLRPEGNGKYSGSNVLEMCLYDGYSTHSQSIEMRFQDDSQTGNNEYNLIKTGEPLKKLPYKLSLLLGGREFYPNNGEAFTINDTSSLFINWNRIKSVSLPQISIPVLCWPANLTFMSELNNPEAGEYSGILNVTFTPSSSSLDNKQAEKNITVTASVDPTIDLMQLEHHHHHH
Nature of the assay: ELISA on coated adhesin.

Assay [2] concerns the target T2, dsc19CsbD6xhis (WS6788A), donor strand complemented recombinant CS17 fimbrial tip adhesin CsbD (Escherichia coli (ETEC) strain WS6788A).
T2 construct: also called dscCsbD; primary CsbD
T2 chain: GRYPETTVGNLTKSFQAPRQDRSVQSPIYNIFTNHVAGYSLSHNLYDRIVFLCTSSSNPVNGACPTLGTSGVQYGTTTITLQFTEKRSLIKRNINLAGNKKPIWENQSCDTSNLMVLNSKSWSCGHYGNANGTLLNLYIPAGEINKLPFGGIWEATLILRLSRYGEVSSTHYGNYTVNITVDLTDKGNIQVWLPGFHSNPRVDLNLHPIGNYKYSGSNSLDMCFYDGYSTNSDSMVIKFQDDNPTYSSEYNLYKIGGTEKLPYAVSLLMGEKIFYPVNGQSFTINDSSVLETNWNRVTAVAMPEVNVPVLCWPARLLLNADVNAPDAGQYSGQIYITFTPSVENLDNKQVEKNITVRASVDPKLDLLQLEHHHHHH
Nature of the assay: ELISA on coated adhesin.

The target in assay [3] is T3, CfaE PD, pilin domain (residues 203-383) of CfaE (Escherichia coli (ETEC) strain H10407).
T3 construct: Tag not written for this construct; also called CfaE pilin domain
T3 chain: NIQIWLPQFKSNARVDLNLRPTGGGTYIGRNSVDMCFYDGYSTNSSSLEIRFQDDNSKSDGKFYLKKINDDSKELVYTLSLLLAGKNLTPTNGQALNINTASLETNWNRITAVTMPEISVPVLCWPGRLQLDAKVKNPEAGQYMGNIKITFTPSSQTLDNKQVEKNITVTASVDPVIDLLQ
Nature of the assay: ELISA on coated CfaE domains (FIG. 10).

Assay [4] has as its target T4, CsbD, tip adhesin of CS17 fimbriae on wild type ETEC strain WS6788A (Escherichia coli (ETEC) strain WS6788A).
T4 chain: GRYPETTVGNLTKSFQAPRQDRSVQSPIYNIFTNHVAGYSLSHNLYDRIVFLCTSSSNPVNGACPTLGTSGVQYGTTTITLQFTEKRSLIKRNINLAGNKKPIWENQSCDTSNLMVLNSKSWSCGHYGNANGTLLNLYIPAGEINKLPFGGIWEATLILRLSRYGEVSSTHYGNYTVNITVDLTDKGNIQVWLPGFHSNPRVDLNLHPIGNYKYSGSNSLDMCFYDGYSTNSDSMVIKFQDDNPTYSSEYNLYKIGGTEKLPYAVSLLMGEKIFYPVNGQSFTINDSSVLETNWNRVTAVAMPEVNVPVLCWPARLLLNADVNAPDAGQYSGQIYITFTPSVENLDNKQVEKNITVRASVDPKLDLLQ
Nature of the assay: cell-based or functional assay.

The target of assay [5] is T5, CfaE, tip adhesin of CFA/I fimbriae on wild type ETEC strain H10407 (Escherichia coli (ETEC) strain H10407, UniProt P25734 23-360).
T5 sequence: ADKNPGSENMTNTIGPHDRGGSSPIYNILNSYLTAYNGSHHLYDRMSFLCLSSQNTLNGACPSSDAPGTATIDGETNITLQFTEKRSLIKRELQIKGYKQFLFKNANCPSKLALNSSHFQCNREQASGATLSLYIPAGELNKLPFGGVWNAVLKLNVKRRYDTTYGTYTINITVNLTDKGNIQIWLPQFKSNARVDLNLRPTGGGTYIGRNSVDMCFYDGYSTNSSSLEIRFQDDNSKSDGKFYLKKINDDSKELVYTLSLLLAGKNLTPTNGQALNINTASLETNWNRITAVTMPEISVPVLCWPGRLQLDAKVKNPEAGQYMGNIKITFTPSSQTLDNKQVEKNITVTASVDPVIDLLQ
Nature of the assay: cell-based or functional assay.

Assay [6] has as its target CooD, tip adhesin of CS1 fimbriae on wild type ETEC strain WS1974A (Escherichia coli (ETEC) strain WS1974A). Briefly: cell-based or functional assay.
In assay [7] the target is CsfD, tip adhesin of CS4 fimbriae on wild type ETEC strain BANG10-SP (Escherichia coli (ETEC) strain BANG10-SP). Nature of the assay: cell-based or functional assay.
The target in assay [8] is CsuD, tip adhesin of CS14 fimbriae on wild type ETEC strain WS3294A (Escherichia coli (ETEC) strain WS3294A). Briefly: cell-based or functional assay.
Assay [9] concerns the target T6, CsbD L85I/H144A, tip adhesin of CS17 fimbriae on wild type ETEC strain LSN02-013966/A (Escherichia coli (ETEC) strain …).
T6 chain: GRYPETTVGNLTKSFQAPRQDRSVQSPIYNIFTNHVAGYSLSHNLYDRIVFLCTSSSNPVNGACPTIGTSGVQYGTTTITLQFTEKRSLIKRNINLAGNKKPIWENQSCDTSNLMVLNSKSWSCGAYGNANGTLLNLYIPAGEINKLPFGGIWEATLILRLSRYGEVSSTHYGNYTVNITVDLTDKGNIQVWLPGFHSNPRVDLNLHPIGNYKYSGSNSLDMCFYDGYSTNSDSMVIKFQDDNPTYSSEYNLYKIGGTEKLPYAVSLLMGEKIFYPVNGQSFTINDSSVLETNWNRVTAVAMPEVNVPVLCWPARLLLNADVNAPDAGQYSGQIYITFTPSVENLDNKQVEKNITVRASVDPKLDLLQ
Briefly: cell-based or functional assay.

Assay [10] has as its target T7, CotD, tip adhesin of CS2 fimbriae on wild type ETEC strain C91f (Escherichia coli (ETEC) strain C91f).
T7 chain: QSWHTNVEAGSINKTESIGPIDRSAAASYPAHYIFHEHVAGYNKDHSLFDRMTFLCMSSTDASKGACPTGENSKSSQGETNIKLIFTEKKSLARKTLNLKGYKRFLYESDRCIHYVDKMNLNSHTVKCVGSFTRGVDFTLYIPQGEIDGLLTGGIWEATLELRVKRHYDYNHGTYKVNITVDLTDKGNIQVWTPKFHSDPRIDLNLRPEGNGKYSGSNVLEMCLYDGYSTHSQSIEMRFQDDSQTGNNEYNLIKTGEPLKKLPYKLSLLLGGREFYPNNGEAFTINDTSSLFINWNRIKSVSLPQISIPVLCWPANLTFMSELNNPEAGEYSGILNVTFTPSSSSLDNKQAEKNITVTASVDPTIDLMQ
Briefly: cell-based or functional assay.

Assay [11] deals with T5, CfaE, tip adhesin of CFA/I fimbriae on …. Nature of the assay: cell-based or functional assay. This is another data set of the same source.

B1: anti-CfaE mouse mAb P1F9 (antibody, V domains shown)
VH: QVQLQQPGAELVKPGASVKLSCKASGYTFTSYWMHWVRQRPGQGLDWIGEIDPSDSYINYNQKFKGKATLTVDKSSSTAYMQLSSLTSEDSAVYYCGRKSLGVSVLAYWGQGTPVTVSA
VL: DIVMTQSHKFMSTSVGDRVSISCTASQDVNAAVAWYQQKPGQSPKLLIYWASTRHTGVPDRFTGSGSGTDYTLTISSVQAEDLALYYCQQHYSTPLTFGAGTKLELK
Turning to B1, the binding result in [1] was “no binding (tested: mAb 2 ug/ml)”; in assay [2], “no binding (tested: mAb 2 ug/ml)”; in assay [3] it was “binds”. In addition, the “MIC in HAI” value in [4] was > 250 µg/mL; in assay [5], 1.5 µg/mL; in assay [6], > 250 µg/mL; in assay [7] it was > 250 µg/mL; in assay [8], > 250 µg/mL; in assay [9] it was > 250 µg/mL. Further, the “MIC in HAI” value in assay [10] is > 250 µg/mL.

B2: anti-CfaE mouse mAb P8D10 (antibody, V domains shown)
VH: QIQLVQSGPELKKPGETVKISCKASGYTFTNYGMNWVKQAPGKGLKWMGWINTYTGQSTYADDFKGRFAFSLETSASTAHLQISNLKNEDAATYFCARMEYGNYENALDYWGQGTSVTVSS
VL: DIVMTQSHKFMSTSIGDRVSITCKASQDVSTAVVWYQQKPGHSPKLLIYSASYRYTGVPDRFTGSGSGTDFTFTISSVQAEDLAVYYCLQHFSTPRTFGGGTNLEIK
notes: also called full length P8D10 mAb
B2: the binding result in assay [1] and in assay [2] was “no binding (tested: mAb 2 ug/ml)” throughout. Also, the “MIC in HAI” value is > 250 µg/mL in assay [4]; 1.2 µg/mL in [5]; > 250 µg/mL in [6]; > 250 µg/mL in [7]; > 250 µg/mL in [8]; > 250 µg/mL in assay [9]. Besides, the “MIC in HAI” value in assay [10] was > 250 µg/mL. Moreover, in assay [11], the “fold reduction of ETEC H10407 binding to Caco-2 cells” value was > 4 fold.
